Data from patent US9206411B2, “Staphylococcal Phage2638A endolysin amidase domain is lytic for Staphylococcus aureus” (priority 2012, dated 2015).

Legend:
MRSA strain NRS382 = test: Control of systemic MRSA infection in a murine model; assay type: in vivo, Staphylococcus aureus
[1] = test system: S. aureus strain NRS119 (SA LinR #12; linezolid resistant); test: Plate lysis assay (FIG. 3); assay type: cell-based; details: lawn on TSA plates, observed over days
Description: (§1) Purified proteins for each construct were diluted in sterile nickel column elution buffer, and 6 μL of lysostaphin (11 μg) or the constructs (0.2 nmoles or ˜11 μg for the repaired construct 2638A 1-180Mut-486) was spotted onto a freshly spread lawn of S. aureus strain NRS119 (SA LinR #12; linezolid resistant) growing cells that had air dried for 30 min on tryptic soy agar (TSA) plates. L=[…] Lysostaphin (Sigma); Spot 1=11 μg; all other constructs are 0.2 nmoles (˜11 μg for the repaired construct 2638A 1-180Mut-486) […]. The spotted plates were air dried for 10 min in a laminar flow hood and incubated overnight in a 37° C. environment. Scoring of the cleared spots occurred within 20 h of plating the cells.
(§2) The Plate Lysis assay results (FIG. 3) agree with the turbidity reduction assay. Each of the M23 peptidase dependent or SH3b-truncating constructs showing weak activity on S. aureus strain Newman strain. In addition to the Plate Lysis results in FIG. 3, we have also examined numerous strains with reduced but real lytic activity (Table 1). However, the plate lysis results with the 2638A endolysin constructs are extremely novel in appearance. Plate lysis results are routinely visualized as a discrete cleared spot on a lawn of bacteria after a single overnight of culture. […]

S. aureus ANG 133 = test: Plate lysis, susceptibility of strains to 2638A (Table 1); assay type: cell-based
Description: as §1
(§3) The Plate Lysis assay results (FIG. 3) agree with the turbidity reduction assay. Each of the M23 peptidase dependent or SH3b-truncating constructs showing weak activity on S. aureus strain Newman strain. In addition to the Plate Lysis results in FIG. 3, we have also examined numerous strains with reduced but real lytic activity (Table 1). However, the plate lysis results with the 2638A endolysin constructs are extremely novel in appearance. Plate lysis results are routinely visualized as a discrete cleared spot on a lawn of bacteria after a single overnight of culture. […] In contrast, the 2638A endolysin is unique in that sometimes this cleared zone requires multiple days to appear. […] Thus, there is also a likelihood that the enzyme might work preferentially on late log or stationary phase cells in the plate lysis assay, as the 3 day old culture is likely not growing as quickly as the freshly-plated overnight culture.

S. aureus Tanji 48 = test: as above; assay type: cell-based
Description: as §1, §3

S. aureus Tanji 9 = test: as above; assay type: cell-based
Description: as §1, §3

S. aureus SA113 ΔtagO = test: as above; assay type: cell-based
Description: as §1, §3

S. aureus Tanji 3 = test: as above; assay type: cell-based
Description: as §1, §3

S. aureus Tanji 49 = test: as above; assay type: cell-based
Description: as §1, §3

[2] = test system: S. aureus Newman srtA::ermB; test: as above; assay type: cell-based
Description: as §1, §3

S. aureus Tanji 33 = test: as above; assay type: cell-based
Description: as §1, §3

S. aureus NRS 382 (MRSA) = test: as above; assay type: cell-based
Description: as §1, §3

S. aureus Reynolds (CP-) = test: as above; assay type: cell-based
Description: as §1, §3

S. xylosus = test: as above; assay type: cell-based
Description: as §1, §3

S. aureus NRS 385 (MRSA) = test: as above; assay type: cell-based
Description: as §1, §3

S. aureus Tanji 20 = test: as above; assay type: cell-based
Description: as §1, §3

S. aureus MN8 Δica = test: as above; assay type: cell-based
Description: as §1, §3

S. aureus Newman = test: as above; assay type: cell-based
Description: as §1, §3

S. warneri = test: as above; assay type: cell-based
Description: as §1, §3

S. aureus MN8 = test: as above; assay type: cell-based
Description: as §1, §3

S. aureus Newman Δica = test: as above; assay type: cell-based
Description: as §1, §3

S. aureus Reynolds (CP8) = test: as above; assay type: cell-based
Description: as §1, §3

S. aureus ALC 1342 = test: as above; assay type: cell-based
Description: as §1, §3

S. hyicus = test: as above; assay type: cell-based
Description: as §1, §3

S. aureus Tanji 28 = test: as above; assay type: cell-based
Description: as §1, §3

S. aureus Tanji 26 = test: as above; assay type: cell-based
Description: as §1, §3

S. aureus 305 = test: as above; assay type: cell-based
Description: as §1, §3

S. aureus Tanji 1 = test: as above; assay type: cell-based
Description: as §1, §3

S. aureus Newman sm^r = test: as above; assay type: cell-based
Description: as §1, §3

S. aureus Tanji 29 = test: as above; assay type: cell-based; set-up: key: − = >100 pmol; (+) = very faint lysis zone; + = 100 pmol; ++ = 10 pmol; +++ = 1 pmol
Description: as §1, §2

B1: 2638A Endolysin: 486 amino acid staphylococcal phage 2638A endolysin (SEQ ID NO:4), C-terminally 6×His-tagged; M23 peptidase, amidase, SH3b domains (protein)
chain: MLTAIDYLTKKGWKISSDPRTYDGYPKNYGYRNYHENGINYDEFCGGYHRAFDVYSNETNDVPAVTSGTVIEANDYGNFGGTFVIRDANDNDWIYGHLQRGSMRFVVGDKVNQGDIIGLQGNSNYYDNPMSVHLHLQLRPKDAKKDEKSQVCSGLAMEKYDITNLNAKQDKSKNGSVKELKHIYSNHIKGNKITAPKPSIQGVVIHNDYGSMTPSQYLPWLYARENNGTHVNGWASVYANRNEVLWYHPTDYVEWHCGNQWANANLIGFEVCESYPGRISDKLFLENEEATLKVAADVMKSYGLPVNRNTVRLHNEFFGTSCPHRSWDLHVGKGEPYTTTNINKMKDYFIKRIKHYYDGGKLEVSKAATIKQSDVKQEVKKQEAKQIVKATDWKQNKDGIWYKAEHASFTVTAPEGIITRYKGPWTGHPQAGVLQKGQTIKYDEVQKFDGHVWVSWETFEGETVYMPVRTWDAKTGKVGKLWGEIKLEHHHHHH
modifications: C-terminal His6 tag; Mutated Phage 2638a
notes: M23 peptidase, amidase, SH3b domains
B1 was tested, and the “% Survival” value (MRSA strain NRS382; 0 hours, Balb/c mice, I.P. 4×10^7 CFU, treated 30 min post infection: 2638A 200 μg/mouse I.P., Vancomycin 375 μg/mouse s.c., Oxacillin 1250 μg/mouse s.c.) was 100%, the “% Survival” value (MRSA strain NRS382; 4 hours, same model and doses) was 100% and the “% Survival” value (MRSA strain NRS382; 8 hours, same model and doses) was 100%. For the same molecule, the “% Survival” value (MRSA strain NRS382; 12 hours, same model and doses) was 100%, the “% Survival” value (MRSA strain NRS382; 16 hours, same model and doses) was 100% and the “% Survival” value (MRSA strain NRS382; 20 hours, same model and doses) was 100%. The “% Survival” value (MRSA strain NRS382; 24 hours, same model and doses) was 100%, the “% Survival” value (MRSA strain NRS382; 28 hours, same model and doses) was 100% and the “% Survival” value (MRSA strain NRS382; 32 hours, same model and doses) was 100%. The “% Survival” value (MRSA strain NRS382; 36 hours, same model and doses) was 100%, the “% Survival” value (MRSA strain NRS382; 40 hours, same model and doses) was 100% and the “% Survival” value (MRSA strain NRS382; 44 hours, same model and doses) was 100%. For the same molecule, the “% Survival” value (MRSA strain NRS382; 48 hours (end of the experiment), same model and doses) was 100%, the “septicemia score at the end of the experiment” value (MRSA strain NRS382; 48 hours, score 0-5 per Table 4) was 0 and the “Mean NRS382 Titer in the Blood” value (MRSA strain NRS382; Recovered 48 hr post infection from surviving mice, same doses) was 0.8 ± 1.9 × 10^1 CFU/ml. For the same molecule, the “appearance and persistence of the cleared zone in plate lysis” value [1] was “very broad, ill-defined region of clearing that grows with time, up to four days”, the “Susceptibility to lysis by 2638A, day 1” value (S. aureus ANG 133; day 1) was “− (− = >100 pmol)” and the “Susceptibility to lysis by 2638A, day 3+” value (S. aureus ANG 133; day 3+) was “− (− = >100 pmol)”. For the same molecule, the “Susceptibility to lysis by 2638A, day 1” value (S. aureus Tanji 48; day 1) was “− (− = >100 pmol)”, the “Susceptibility to lysis by 2638A, day 3+” value (S. aureus Tanji 48; day 3+) was “+ (+ = 100 pmol)” and the “Susceptibility to lysis by 2638A, day 1” value (S. aureus Tanji 9; day 1) was “− (− = >100 pmol)”. The “Susceptibility to lysis by 2638A, day 3+” value (S. aureus Tanji 9; day 3+) was “− (− = >100 pmol)”, the “Susceptibility to lysis by 2638A, day 1” value (S. aureus SA113 ΔtagO; day 1) was “+++ (+++ = 1 pmol)” and the “Susceptibility to lysis by 2638A, day 3+” value (S. aureus SA113 ΔtagO; day 3+) was “+++ (+++ = 1 pmol)”. The “Susceptibility to lysis by 2638A, day 1” value (S. aureus Tanji 3; day 1) was “− (− = >100 pmol)”, the “Susceptibility to lysis by 2638A, day 3+” value (S. aureus Tanji 3; day 3+) was “− (− = >100 pmol)” and the “Susceptibility to lysis by 2638A, day 1” value (S. aureus Tanji 49) was “− (− = >100 pmol)”. The “Susceptibility to lysis by 2638A, day 1” value ([2]; day 1) was “− (− = >100 pmol)”, the “Susceptibility to lysis by 2638A, day 3+” value ([2]; day 3+) was “− (− = >100 pmol)” and the “Susceptibility to lysis by 2638A, day 1” value (S. aureus Tanji 33; day 1) was “− (− = >100 pmol)”. For the same molecule, the “Susceptibility to lysis by 2638A, day 3+” value (S. aureus Tanji 33; day 3+) was “+ (+ = 100 pmol)”, the “Susceptibility to lysis by 2638A, day 1” value (S. aureus NRS 382 (MRSA); day 1) was “− (− = >100 pmol)” and the “Susceptibility to lysis by 2638A, day 3+” value (S. aureus NRS 382 (MRSA); day 3+) was “− (− = >100 pmol)”. For the same molecule, the “Susceptibility to lysis by 2638A, day 1” value (S. aureus Reynolds (CP-); day 1) was “− (− = >100 pmol)”, the “Susceptibility to lysis by 2638A, day 3+” value (S. aureus Reynolds (CP-); day 3+) was “− (− = >100 pmol)” and the “Susceptibility to lysis by 2638A, day 1” value (S. xylosus; day 1) was “− (− = >100 pmol)”. For the same molecule, the “Susceptibility to lysis by 2638A, day 3+” value (S. xylosus; day 3+) was “− (− = >100 pmol)”, the “Susceptibility to lysis by 2638A, day 1” value (S. aureus NRS 385 (MRSA); day 1) was “− (− = >100 pmol)” and the “Susceptibility to lysis by 2638A, day 3+” value (S. aureus NRS 385 (MRSA); day 3+) was “− (− = >100 pmol)”. The “Susceptibility to lysis by 2638A, day 1” value (S. aureus Tanji 20; day 1) was “− (− = >100 pmol)”, the “Susceptibility to lysis by 2638A, day 3+” value (S. aureus Tanji 20; day 3+) was “+ (+ = 100 pmol)” and the “Susceptibility to lysis by 2638A, day 1” value (S. aureus MN8 Δica; day 1) was “− (− = >100 pmol)”. For the same molecule, the “Susceptibility to lysis by 2638A, day 3+” value (S. aureus MN8 Δica; day 3+) was “++ (++ = 10 pmol)”, the “Susceptibility to lysis by 2638A, day 1” value (S. aureus Newman; day 1) was “− (− = >100 pmol)” and the “Susceptibility to lysis by 2638A, day 3+” value (S. aureus Newman; day 3+) was “− (− = >100 pmol)”. For the same molecule, the “Susceptibility to lysis by 2638A, day 1” value (S. warneri; day 1) was “− (− = >100 pmol)”, the “Susceptibility to lysis by 2638A, day 3+” value (S. warneri; day 3+) was “− (− = >100 pmol)” and the “Susceptibility to lysis by 2638A, day 1” value (S. aureus MN8; day 1) was “− (− = >100 pmol)”. For the same molecule, the “Susceptibility to lysis by 2638A, day 3+” value (S. aureus MN8; day 3+) was “++ (++ = 10 pmol)”, the “Susceptibility to lysis by 2638A, day 1” value (S. aureus Newman Δica; day 1) was “− (− = >100 pmol)” and the “Susceptibility to lysis by 2638A, day 3+” value (S. aureus Newman Δica; day 3+) was “− (− = >100 pmol)”. The “Susceptibility to lysis by 2638A, day 1” value (S. aureus Reynolds (CP8); day 1) was “− (− = >100 pmol)”, the “Susceptibility to lysis by 2638A, day 3+” value (S. aureus Reynolds (CP8); day 3+) was “− (− = >100 pmol)” and the “Susceptibility to lysis by 2638A, day 1” value (S. aureus ALC 1342; day 1) was “− (− = >100 pmol)”. The “Susceptibility to lysis by 2638A, day 3+” value (S. aureus ALC 1342; day 3+) was “− (− = >100 pmol)”, the “Susceptibility to lysis by 2638A, day 1” value (S. hyicus; day 1) was “− (− = >100 pmol)” and the “Susceptibility to lysis by 2638A, day 3+” value (S. hyicus; day 3+) was “− (− = >100 pmol)”. The “Susceptibility to lysis by 2638A, day 1” value (S. aureus Tanji 28; day 1) was “− (− = >100 pmol)”, the “Susceptibility to lysis by 2638A, day 3+” value (S. aureus Tanji 28; day 3+) was “− (− = >100 pmol)” and the “Susceptibility to lysis by 2638A, day 1” value (S. aureus Tanji 26; day 1) was “− (− = >100 pmol)”. For the same molecule, the “Susceptibility to lysis by 2638A, day 3+” value (S. aureus Tanji 26; day 3+) was “+ (+ = 100 pmol)”, the “Susceptibility to lysis by 2638A, day 1” value (S. aureus 305; day 1) was “− (− = >100 pmol)” and the “Susceptibility to lysis by 2638A, day 3+” value (S. aureus 305; day 3+) was “− (− = >100 pmol)”. For the same molecule, the “Susceptibility to lysis by 2638A, day 1” value (S. aureus Tanji 1; day 1) was “− (− = >100 pmol)”, the “Susceptibility to lysis by 2638A, day 3+” value (S. aureus Tanji 1; day 3+) was “− (− = >100 pmol)” and the “Susceptibility to lysis by 2638A, day 1” value (S. aureus Newman sm^r; day 1) was “− (− = >100 pmol)”. The “Susceptibility to lysis by 2638A, day 3+” value (S. aureus Newman sm^r; day 3+) was “− (− = >100 pmol)” and the “Susceptibility to lysis by 2638A, day 1” value (S. aureus Tanji 29) was “(+)”.
